The source of these data is publication PMC10567702, “A concerted ATPase cycle of the protein transporter AAA-ATPase Bcs1” (Nature Communications, 2023).

As usually defined, the Km is the substrate concentration at which the rate is half of its maximum. By kcat is commonly meant the number of substrate molecules converted per active site and unit of time at saturation.

Substrate in this data set: Nc1ncnc2c1ncn2[C@@H]1O[C@H](COP(=O)(O)OP(=O)(O)OP(=O)(O)O)[C@@H](O)[C@H]1O
The data set can be described thus: purified protein. As to conditions: conformational turnover per ring (printed as Vmax, maximum turnover rate), reconstituted membranes, 10 mM HEPES pH 7.5, 200 mM NaCl, 2 mM MgCl2, ambient temperature.

B1: Bcs1 (mBcs1) (Mus musculus) (protein)
chain: MPFSDFVLALKDNPYFGAGFGLVGVGTALAMARKGAQLGLVAFRRHYMITLEVPARDRSYAWLLSWLTRHSTRTQHLSVETSYLQHESGRISTKFEFIPSPGNHFIWYQGKWIRVERNRDMQMVDLQTGTPWESVTFTALGTDRKVFFNILEEARALALQQEEGKTVMYTAVGSEWRTFGYPRRRRPLDSVVLQQGLADRIVKDIREFIDNPKWYIDRGIPYRRGYLLYGPPGCGKSSFITALAGELEHSICLLSLTDSSLSDDRLNHLLSVAPQQSLVLLEDVDAAFLSRDLAVENPIKYQGLGRLTFSGLLNALDGVASTEARIVFMTTNYIDRLDPALIRPGRVDLKEYVGYCSHWQLTQMFQRFYPGQAPSLAENFAEHVLKATSEISPAQVQGYFMLYKNDPMGAVHNIESLR
As to B1, the Km was 0.2 µM and the kcat is about 0.17 s⁻¹.
